Experimental data reported in article PMC9226502, “MutL binds to 3′ resected DNA ends and blocks DNA polymerase access”.

Experiments:
MutL WT [1] = molecular target: T1, MutL WT (Escherichia coli, UniProt P23367 1-615); assay: fluorescence anisotropy; 3 mM ATP; FA: 20 mM HEPES pH 7.5, 150 mM NaCl, 5 mM MgCl2, 0.08% Tween 20, 20% glycerol, 2 mM DTT, 5 nM DNA, 25 C; BLI: 25 mM HEPES pH 7.5, 150 mM NaCl, 5 mM MgCl2, 2 mM; settings: protein: recombinant, (HisTrap purified), chain copies: 2
MutL WT [2] = molecular target: T1, MutL WT; assay: cryo-EM structure (3.7 A); 3 mM AMPPNP, 5 mM Mg2+; FA: 20 mM HEPES pH 7.5, 150 mM NaCl, 5 mM MgCl2, 0.08% Tween 20, 20% glycerol, 2 mM DTT, 5 nM DNA, 25 C; BLI: 25 mM HEPES pH 7.5, 150 mM NaCl, 5 mM MgCl2, 2 mM; settings: protein: recombinant; (HisTrap purified); chain copies: 2; 21 bp duplex, 5' overhang 21 nt on template
MutL WT [3] = molecular target: T1, MutL WT; assay: fluorescence anisotropy; 3 mM ATP (Table 2 gives 0.64 uM); FA: 20 mM HEPES pH 7.5, 150 mM NaCl, 5 mM MgCl2, 0.08% Tween 20, 20% glycerol, 2 mM DTT, 5 nM DNA, 25 C; BLI: 25 mM HEPES pH 7.5, 150 mM NaCl, 5 mM MgCl2, 2 mM; settings: protein: recombinant; (HisTrap purified); chain copies: 2; label: 5'-FAM on primer S8; 15 bp duplex, 5' overhang 16 nt on template (recessed primer 3' end)
MutL WT [4] = molecular target: T1, MutL WT; assay: fluorescence anisotropy; AMPPNP (3 mM; Fig 3C legend 1 mM); FA: 20 mM HEPES pH 7.5, 150 mM NaCl, 5 mM MgCl2, 0.08% Tween 20, 20% glycerol, 2 mM DTT, 5 nM DNA, 25 C; BLI: 25 mM HEPES pH 7.5, 150 mM NaCl, 5 mM MgCl2, 2 mM; settings: protein: recombinant; (HisTrap purified); chain copies: 2; label: 5'-FAM on primer S8; 15 bp duplex, 5' overhang 16 nt on template (recessed primer 3' end)
MutL H270A = MutL H270A (Escherichia coli, UniProt P23367 1-615, H270A); assay: fluorescence anisotropy; AMPPNP (1 mM, Fig 3C); FA: 20 mM HEPES pH 7.5, 150 mM NaCl, 5 mM MgCl2, 0.08% Tween 20, 20% glycerol, 2 mM DTT, 5 nM DNA, 25 C; BLI: 25 mM HEPES pH 7.5, 150 mM NaCl, 5 mM MgCl2, 2 mM; settings: protein: recombinant; (HisTrap purified); chain copies: 2; label: 5'-FAM on primer S8; 15 bp duplex, 5' overhang 16 nt on template (recessed primer 3' end)
MutL H270A+H319A = MutL H270A+H319A (Escherichia coli, UniProt P23367 1-615, H270A;H319A); assay: as above; settings: protein: recombinant; (HisTrap purified); chain copies: 2; label: 5'-FAM on primer S8; 15 bp duplex, 5' overhang 16 nt on template (recessed primer 3' end)
MutL H319A = MutL H319A (Escherichia coli, UniProt P23367 1-615, H319A); assay: as above; settings: protein: recombinant; (HisTrap purified); chain copies: 2; label: 5'-FAM on primer S8; 15 bp duplex, 5' overhang 16 nt on template (recessed primer 3' end)

B1: blunt-ended DNA (dsDNA)
DNA 1: AAGTGTCTGTCGTTTT
DNA 2: AAAACGACAGACACTT
- binding result (MutL WT [1]; label: 3'-FAM on S7): no binding

B2: cryo-EM 3' resected DNA (dsDNA)
DNA 1: AAACAGGCTTAGGCTGGAGGATCAGCTTAGCTTAGAGTCATC
DNA 2: GATGACTCTAAGCTAAGCTGA
- binding result (MutL WT [2]): binds

B3: 3' resected primer/template junction (dsDNA)
DNA 1: AAGTGTCTGTCGTTTTAAGGACGAAGGACTC
DNA 2: GAGTCCTTCGTCCTT
- Kd (MutL WT [3]): 650 ± 320 nM
- Kd (MutL WT [4]): 290 ± 120 nM
- Kd (MutL H270A): 1590 ± 230 nM
- binding result (MutL H270A+H319A): no binding
- Kd (MutL H319A): 4510 ± 1180 nM

B4: 5' resected primer/template junction (dsDNA)
DNA 1: AAGTGTCTGTCGTTTTAAGGACGAAGGACTC
DNA 2: AAAACGACAGACACTT
- binding result (MutL WT [1]; label: 3'-FAM on primer S7): no binding
